Data from article PMC5087801.

Target: fluorescein-labeled HMGB1 (full-length) (rat) (UniProt P63159)
Test: fluorescence polarisation

UniProt P63159, sequence (P63159 whole entry): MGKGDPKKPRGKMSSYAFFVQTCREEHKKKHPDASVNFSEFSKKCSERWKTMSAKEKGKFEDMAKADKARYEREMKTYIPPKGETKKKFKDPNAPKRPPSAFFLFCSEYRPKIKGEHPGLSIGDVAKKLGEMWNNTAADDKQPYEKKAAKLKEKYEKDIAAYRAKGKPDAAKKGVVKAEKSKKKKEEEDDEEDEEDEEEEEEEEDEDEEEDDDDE

“Danio rerio TLR5-N14VLR (drTLR5) (receptor)” gave a Kd of 2.9 µM.
